This is an account of results in patent publication US20230233607A1.

The target in the test is CV1, an engineered high-affinity membrane receptor for CD47. In words: flow cytometry; HEK 293T cells with light-induced CV1 incubated with biotinylated CD47, detected by streptavidin-PE. (A flow cytometer gives signals particle by particle.)

“Biotinylated CD47 protein (from UniProt Q08722 19-135) (ligand)” gave a percent of engineered cells stained with CD47 of more than 80%.
